Values belong to the binder of their own block, whether it stands above or below them.
How the values were obtained:
[1] = biological target: T1, mouse 5B6, full length, membrane bound on cells (mouse); experiment: flow cytometry on live 293T cells transiently transfected with full length untagged m5B6
T1 construct: also called m5B6; mClec9A
T1 chain: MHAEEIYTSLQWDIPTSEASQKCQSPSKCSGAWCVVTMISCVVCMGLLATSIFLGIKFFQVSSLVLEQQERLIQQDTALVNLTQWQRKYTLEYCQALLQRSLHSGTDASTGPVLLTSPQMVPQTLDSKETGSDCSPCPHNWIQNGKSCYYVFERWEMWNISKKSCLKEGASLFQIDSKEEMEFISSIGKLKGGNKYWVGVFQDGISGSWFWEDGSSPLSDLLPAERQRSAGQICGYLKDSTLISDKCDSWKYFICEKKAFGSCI
Description: (§1) To identify binding partners for the 5B6 molecule, the inventors generated the soluble FLAG-tagged m5B6 and h5B6, and a control soluble FLAG-tagged C-type lectin Cire. […] Thus, soluble 5B6 can interact with membrane bound 5B6 in a cross-species manner.
(§2) Binding assays were performed in binding buffer (PBS containing 0.2% BSA/and 0.02% sodium azide), on ice. Cells were washed 3 times with PBS to remove serum proteins, then resuspended in binding buffer. Cells were incubated with either (1) biotinylated soluble Clec9A and controls, and detected with SA-PE, or (2) soluble FLAG-tagged Clec9A, biotinylated anti-FLAG mAb 9H10, then detected with SA-PE. Live cells were gated on forward and side scatter, or by propidium iodide (PI) exclusion, whereas dead cells were gated on forward and side scatter, or by PI inclusion. Analysis of soluble Clec9A binding was performed by flow cytometry using a FACScan (Becton Dickinson).

[2] = biological target: T2, human 5B6, full length, membrane bound on cells (human, UniProt Q6UXN8 1-241); experiment: flow cytometry on live 293T cells transiently transfected with full length untagged h5B6
T2 construct: also called h5B6; hCLEC9A
T2 sequence (Q6UXN8 whole entry): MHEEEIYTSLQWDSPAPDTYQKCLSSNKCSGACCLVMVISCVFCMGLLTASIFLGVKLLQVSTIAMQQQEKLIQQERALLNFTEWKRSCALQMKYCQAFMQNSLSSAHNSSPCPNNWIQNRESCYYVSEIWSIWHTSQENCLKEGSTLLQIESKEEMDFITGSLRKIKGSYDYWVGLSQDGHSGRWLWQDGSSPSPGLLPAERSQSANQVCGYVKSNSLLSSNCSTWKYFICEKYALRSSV
Description: as §1, §2

binding result [1]: binds
binding result [2]: binds
B1: soluble FLAG-tagged human 5B6 (full ectodomain: stalk/hinge and CTLD) (receptor)
chain: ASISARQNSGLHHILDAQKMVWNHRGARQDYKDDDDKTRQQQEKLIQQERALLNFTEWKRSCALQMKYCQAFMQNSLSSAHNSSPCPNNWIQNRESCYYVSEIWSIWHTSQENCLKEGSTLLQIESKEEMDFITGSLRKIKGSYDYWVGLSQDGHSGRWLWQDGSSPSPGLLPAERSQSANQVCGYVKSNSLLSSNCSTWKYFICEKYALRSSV
notes: Built like m1; also called soluble h5B6; soluble human 5B6

binding result [1]: binds
binding result [2]: binds
B2: soluble FLAG-tagged mouse 5B6 (full ectodomain: stalk/hinge and CTLD) (receptor)
chain: ASISARQNSGLHHILDAQKMVWNHRGARQDYKDDDDKTREQQERLIQQDTALVNLTQWQRKYTLEYCQALLQRSLHSGTDASTGPVLLTSPQMVPQTLDSKETGSDCSPCPHNWIQNGKSCYYVFERWEMWNISKKSCLKEGASLFQIDSKEEMEFISSIGKLKGGNKYWVGVFQDGISGSWFWEDGSSPLSDLLPAERQRSAGQICGYLKDSTLISDKCDSWKYFICEKKAFGSCI
notes: also called soluble m5B6; soluble mouse 5B6

Source: patent US20110110861A1 (WALTER AND ELIZA HALL INSTITUTE OF MEDICAL RESEARCH, published 2011)
